Results: patent publication US20220306751A1 (MYTHIC THERAPEUTICS, published 2022)
Where a chain is given by its changes, count along the chain named.

T1: CD123 protein (R&D Systems Catalog No. 301-R3-025/CF) (Homo sapiens (Human), UniProt P26951 19-305)
T1 construct: Bought protein
T1 sequence: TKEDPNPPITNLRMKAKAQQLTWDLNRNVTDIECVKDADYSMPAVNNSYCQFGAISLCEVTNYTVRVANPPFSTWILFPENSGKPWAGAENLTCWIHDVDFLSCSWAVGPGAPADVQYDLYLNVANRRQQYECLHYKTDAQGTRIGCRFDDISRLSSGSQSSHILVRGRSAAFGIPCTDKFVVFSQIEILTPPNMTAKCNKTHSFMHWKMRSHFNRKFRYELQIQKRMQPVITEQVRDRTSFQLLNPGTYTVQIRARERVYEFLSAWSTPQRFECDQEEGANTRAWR

B1: MYT5476 (antibody, V domains shown)
VH: EVQLLESGGGLVQPGGSLRLSCAVSDYSITSGYYWNWIRQAPGKKLEWMGYISYDGSNNYNPSLKNGRITISRDTSKNTFYLQMNSLRAEDTAVYYCARGEHFYFDSWGQGTLVTVSS
VL: EIVLTQSPGTLSLSPGERATLSCKSSQSLFFGSTQKNYLAWYQQKPGQAPRLLIYWASTRESGIPDRFSGSGSGTDFTLTISRLEPEDFAVYYCQQYYNYPWTFGQGTKLEIK
notes: IgG
B2: MYT5495 (antibody, V domains shown)
VH: B1 VH with H102G
VL: B1 VL with A40H
notes: IgG

Biological target: T1, CD123 protein (R&D Systems Catalog No. …)
Test: BLI, IgG on anti-human Fc sensor, pH 7.4 and pH 5.4

Row | binding result | Binder
1 | no binding (tested: 50 nM) | B1
2 | no binding (tested: 50 nM) | B2
